Laboratory results: article PMC5761895
pEC50: −log10 of the molar value.

Biological target: Fluorescently labelled replication protein A (Flu-RPA) (human) (UniProt P27694)
Sequence (P27694 whole entry, chain 1 of 3): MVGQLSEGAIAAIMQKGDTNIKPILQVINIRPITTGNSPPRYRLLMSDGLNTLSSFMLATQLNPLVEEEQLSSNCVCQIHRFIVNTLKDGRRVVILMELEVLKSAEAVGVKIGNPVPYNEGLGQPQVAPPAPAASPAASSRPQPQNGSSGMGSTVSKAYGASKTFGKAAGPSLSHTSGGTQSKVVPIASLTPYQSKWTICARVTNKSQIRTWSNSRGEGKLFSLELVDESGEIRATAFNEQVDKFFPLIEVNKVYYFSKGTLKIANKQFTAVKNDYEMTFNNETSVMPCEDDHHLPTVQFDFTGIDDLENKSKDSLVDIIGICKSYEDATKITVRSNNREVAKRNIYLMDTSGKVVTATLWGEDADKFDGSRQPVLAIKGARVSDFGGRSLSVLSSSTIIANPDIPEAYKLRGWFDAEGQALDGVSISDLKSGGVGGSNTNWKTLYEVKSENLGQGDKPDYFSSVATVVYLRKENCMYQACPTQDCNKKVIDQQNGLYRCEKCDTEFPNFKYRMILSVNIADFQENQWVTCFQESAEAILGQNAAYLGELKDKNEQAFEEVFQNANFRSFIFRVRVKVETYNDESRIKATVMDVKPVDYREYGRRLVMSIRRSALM
Sequence (P15927 whole entry, chain 2 of 3, further chain): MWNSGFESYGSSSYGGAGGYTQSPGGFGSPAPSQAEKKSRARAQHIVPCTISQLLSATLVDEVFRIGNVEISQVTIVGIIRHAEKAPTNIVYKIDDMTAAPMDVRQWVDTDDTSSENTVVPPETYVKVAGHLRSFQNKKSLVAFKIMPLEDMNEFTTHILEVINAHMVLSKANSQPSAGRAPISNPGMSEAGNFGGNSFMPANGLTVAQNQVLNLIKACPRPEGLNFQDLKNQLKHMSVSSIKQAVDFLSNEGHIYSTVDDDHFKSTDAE
Sequence (P35244 whole entry, chain 3 of 3, further chain): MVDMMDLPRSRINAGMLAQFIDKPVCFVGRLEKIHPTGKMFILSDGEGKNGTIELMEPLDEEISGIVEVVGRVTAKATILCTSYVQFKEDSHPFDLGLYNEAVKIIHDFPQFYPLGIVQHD

Chain of Recombinant human xeroderma pigmentosum group A protein (hXPA) bearing the N-terminal polyhistidine fragment (P23025 whole entry, the tested form may be a part): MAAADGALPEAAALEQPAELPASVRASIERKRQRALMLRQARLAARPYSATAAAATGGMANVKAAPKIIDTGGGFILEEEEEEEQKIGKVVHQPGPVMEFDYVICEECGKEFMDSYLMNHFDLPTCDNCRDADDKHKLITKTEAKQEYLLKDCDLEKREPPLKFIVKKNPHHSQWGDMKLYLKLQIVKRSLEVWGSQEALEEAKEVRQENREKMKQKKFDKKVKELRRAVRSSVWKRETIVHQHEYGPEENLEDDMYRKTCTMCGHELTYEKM

pEC50: 7.74
Substance: Recombinant human xeroderma pigmentosum group A protein (hXPA) bearing the N-terminal polyhistidine fragment (from UniProt P23025 1-273) (natural protein)
